Source: publication PMC11359734, “Two enzymes contribute to citrate production in the mitochondrion of Toxoplasma gondii” (The Journal of Biological Chemistry, 2024)

B1: TgPrpC (Toxoplasma gondii) (protein)
chain: QSGVHVPTAPSDCAFSPDWRSVCCSQTFSAVSTTTLERQITKENSKNGIECLNAESENCFGFALLLRHRCGLHSGSVDPPLCSLTRRKPTWQRQTTAFLSSTMARQPLETSYEQRKDSEFSPGLEGVVAGESAISSVGPASLAGLTYRGYRIDDLTEKATFEEVVFLLLHDRLPTKQELDAQHQELVLARRLPPSLKACLEYFPKNSHPMDVVRTGCSMMGMLEQENAPPDQQAKIGLRLIGMYSSMLLYWYHYAHHGIRICEETDPADSVAAHFLKLLNQHSSGPHPLEVKAVDISLILYAEHDFNASTFAARVTAATRSDIYSAICSAIGTLKGPLHGGANEAAIMFLRKLRDMQQADQELESIWRHHERVMGFGHRLYKEGDPRSHIMMKVALDLAQNAPKKDPNLVQIAQHIEERMEKEKHLPANVDFPCALAYHQCGIPTDLYTPLFVLARTAGWTAHIMEQRANNRLIRPVSHYVGPPVRPFPSFEEREKLANPSEQSRSR
notes: residues 113-619 (N-terminal part removed), His-tagged fusion from pESUMO vector, expressed in E. coli Transetta (DE3), Ni2+ column
B2: TgCS1 (Toxoplasma gondii) (protein)
chain: SARSVCGGLSNAEARAAVEAALDALAEKVQEAAEPKRELLKTLRKEHGTVVISEATLSTVCGGMRGLTAILTETSTLHAEKGILYRGLTINECLAKLPRMHKEEYPAVEGLIWFLMTGSIPTVNEVELLSNALYALSLSSASSSPSAPFIPPHVGKVLDAVPPSTHPMTQLVMAAAALQPTSELAQAYRHKTVSRHDLWKPALADALSLIAKNAVMAARIFRRSFRDGQEIDPAANFGHMMGFNSKEHQELFRLYLFLHADHEGGNVSAHAAHVVGSALSDPFLAFSAGMAGLAGPLHGLANQECLNWLRDVHCKLNGAAPTRENVKKIAEDTLASGRVIPGYGHAVLRVTDPRFTAQREFALKYLKDDELFQLLNVAYNTIPDVLLATGKVKNPYPNVDCHSGVLLQHFGITEADFYTVLFGVSRAIGIACQYVWDRILGLPIERPKSTTLDLLKAACVERKGN
notes: residues 95-559 (N-terminal part removed), His-tagged fusion from pESUMO vector, expressed in E. coli Transetta (DE3), Ni2+ column

What was measured:
[1] = substrate: O=C(O)CC(=O)C(=O)O; experiment: citrate synthase kit, OD412, 96-well plate; format: biochemical, Toxoplasma gondii; settings: co-substrate acetyl-CoA
[2] = substrate: CC(=O)SCCNC(=O)CCNC(=O)[C@H](O)C(C)(C)COP(=O)(O)OP(=O)(O)OC[C@H]1O[C@@H](n2cnc3c(N)ncnc32)[C@H](O)[C@@H]1OP(=O)(O)O; experiment: citrate synthase kit, OD412, 96-well plate; format: biochemical, Toxoplasma gondii; settings: co-substrate oxaloacetate

Protein | Km [1] | Km [2]
B1 | 1.661 µM | 1.169 µM
B2 | 1.423 µM | 0.4693 µM
